Patent US20220119492A1 (MEDIKINE, published 2022)
Changes are numbered by the printed parent chain. Ends that are not written are not given here.

T1: human IL-2Rγc (CD132 protein, Fc Tag) (23-254) (human, UniProt P31785 23-254)
T1 construct: range 23-254; Bought protein; also called hu-IL-2Rγc subunit; IL-2Rγc subunit; not shown: Fc tag of the bought protein
T1 sequence (looked up): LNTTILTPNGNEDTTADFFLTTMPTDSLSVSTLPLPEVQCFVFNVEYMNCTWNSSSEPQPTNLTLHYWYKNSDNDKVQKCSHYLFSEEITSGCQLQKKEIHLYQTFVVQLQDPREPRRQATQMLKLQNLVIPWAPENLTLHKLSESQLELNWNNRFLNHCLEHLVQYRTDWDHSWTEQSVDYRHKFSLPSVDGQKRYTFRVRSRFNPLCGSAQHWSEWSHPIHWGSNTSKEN

T2: human IL-2Rβ (CD122 protein, Fc Tag) (27-239) (human, UniProt P14784 27-239)
T2 construct: range 27-239; Bought protein; also called hu-IL-2Rβ subunit; IL-2Rβ subunit; not shown: Fc tag of the bought protein
T2 sequence (looked up): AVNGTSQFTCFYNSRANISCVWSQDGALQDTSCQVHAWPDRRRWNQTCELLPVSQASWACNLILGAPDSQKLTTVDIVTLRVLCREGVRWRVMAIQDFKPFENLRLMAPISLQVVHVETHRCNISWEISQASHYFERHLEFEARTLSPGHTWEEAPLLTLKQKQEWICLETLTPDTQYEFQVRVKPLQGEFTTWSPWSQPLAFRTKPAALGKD

B1: SEQ ID NO 4178 (peptide)
peptide: GGELLVDCFKVKVGELCDLFFGPAPAPAPAPAPAPAPAGVVCQDWEGVELCWQGG
B2: SEQ ID NO 4181 (peptide)
peptide: B1 peptide with K10R, K12R
B3: SEQ ID NO 4176 (peptide)
peptide: GGRYVHDCFIAQVGDLCDLFLHPAPAPAPAPAPAPAPAGVVCQDWEGVELCWQGG
B4: SEQ ID NO 4184 (peptide)
peptide: B3 peptide with L16A
B5: SEQ ID NO 4185 (peptide)
peptide: B3 peptide with A11G
B6: SEQ ID NO 4183 (peptide)
peptide: B3 peptide with V13A
B7: SEQ ID NO 4182 (peptide)
peptide: B3 peptide with D18A
B8: SEQ ID NO 4177 (peptide)
peptide: GGELLVDCFKVKVGELCDLFFGPAPAPAPAPAPAPAPAPAPAPAVVCQDWEGVELCWQGG
B9: SEQ ID NO 4174 (peptide)
peptide: GGGELLVDCFKVKVGELCDLFFGGGGGSGGGGSGGGGSGGVVCQDWEGVELCWQGG
B10: SEQ ID NO 4173 (peptide)
peptide: GGGELLVDCFKVKVGELCDLFFGGGGGSGGGGSGGVVCQDWEGVELCWQGG
B11: SEQ ID NO 4175 (peptide)
peptide: GGRYVHDCFIAQVGDLCDLFLHGGGGSGGGGSGGGGSGGGGSGGVVCQDWEGVELCWQGG
B12: IL-2Rβγc ligand BGL22 (peptide)
peptide 1: GGRYVHDCFIAQVGALCDLFLHPAPAPAPAPAPAPAPA
peptide 2: VVCQDWEGVELCWQGG
modifications: cysteine pairing not given here; also: two chains joined by non-peptidyl linker L11 (click chemistry)
notes: Made by click chemistry
B13: IL-2Rβγc ligand BGL23 (peptide)
peptide 1: B12 peptide 1 with D7A, A15D
peptide 2: VVCQDWEGVELCWQGG
modifications: cysteine pairing not given here; also: two chains joined by non-peptidyl linker L11 (click chemistry)
notes: Made by click chemistry

target: T1, human IL-2Rγc (CD132 protein, Fc Tag) …; assay: competition ELISA, peptide tracer
Protocol: (§1) Binding of Fc fusions to IL-2Rβ and IL-2Rγc were measured using a competition binding ELISA with biotinylated peptide/NeutrAvidin-HRP tracer. ELISA plate was prepared as described in Example 27.
(§2) The plate was washed 4 times with PT (1×PBS, 0.05% Tween® 20) buffer. Fifty (50) μL of IL-2R ligands serially diluted in PBT was added to appropriate wells then incubated at 4° C. for 1 hr.
(§3) At the appropriate time, the precomplexed bn-peptide/NA-HRP tracer was diluted to 2-fold its predetermined binding EC80 (typically 30 to 10 nM) without washing. fifty (50) μL of bn-peptide/NA-HRP tracer was added to each well and incubated at 4° C. for 45 mins.

IC50 [µM]	Binder
< 100	LVDCFKVKVGELCDLFFGPAPAPAPAPAPAPAPAGVVCQDWEGVELCWQ [SEQ ID NO 4179]
< 100	B1
< 100	B2
< 100	B3
< 100	B4
< 100	B5
< 100	B6
< 100	B7
< 100	B8
< 100	B9
< 100	VDCFKVKVGELCDLFFGPAPAPAPAPAPAPAPAGVVCQDWEGVELCWQ [SEQ ID NO 4180]
< 100	B10
< 100	WYPCWIARVGELCDLEEGPVNRGGGGGSGGVVCQDWEGVELCWQGG [SEQ ID NO 4172]
< 100	B11
< 100	B12
< 100	B13

target: T3, cynomolgus monkey IL-2Rβ subunit (cynomolgus monkey); assay: competition ELISA, peptide tracer
T3 construct: Bought protein; also called cyno-IL-2Rβ subunit
Protocol: as §1, §2, §3

T3 sequence (Q38J85 whole entry): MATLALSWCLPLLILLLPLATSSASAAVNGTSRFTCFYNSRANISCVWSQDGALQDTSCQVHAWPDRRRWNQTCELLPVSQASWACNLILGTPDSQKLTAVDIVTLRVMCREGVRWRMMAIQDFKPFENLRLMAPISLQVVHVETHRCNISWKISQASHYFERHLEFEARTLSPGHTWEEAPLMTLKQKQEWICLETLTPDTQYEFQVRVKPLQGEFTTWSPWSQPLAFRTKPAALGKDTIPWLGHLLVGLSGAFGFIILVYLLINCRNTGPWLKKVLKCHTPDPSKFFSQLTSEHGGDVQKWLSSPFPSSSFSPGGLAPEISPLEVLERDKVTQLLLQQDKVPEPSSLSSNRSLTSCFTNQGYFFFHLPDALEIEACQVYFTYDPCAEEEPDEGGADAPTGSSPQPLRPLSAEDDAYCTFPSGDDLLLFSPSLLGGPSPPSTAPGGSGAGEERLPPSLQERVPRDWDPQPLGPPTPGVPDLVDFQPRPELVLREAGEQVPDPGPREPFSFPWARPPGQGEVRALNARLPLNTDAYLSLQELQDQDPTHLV

IC50 [µM]	Binder
< 100	LVDCFKVKVGELCDLFFGPAPAPAPAPAPAPAPAGVVCQDWEGVELCWQ [SEQ ID NO 4179]
< 100	B1
< 100	B2
< 100	GGRYVHDCFIAQVGDLCDLFLHGG [SEQ ID NO 3147]
< 100	GGRYVHDCFAAQVGDLCDLFLHGG [SEQ ID NO 3170]
< 100	GGRYVHDCFIAAVGDLCDLFLHGG [SEQ ID NO 3172]
< 100	GGRYVHDCFIGQVGDLCDLFLHGG [SEQ ID NO 3171]
< 100	GGRAVHDCFIAQVGDLCDLFLHGG [SEQ ID NO 3178]
< 100	GGRYVHDCFIGAVGDLCDLFLHGG [SEQ ID NO 3200]
< 100	GGRYVHDCFIGQVGDLCALFLHGG [SEQ ID NO 3204]
< 100	GGRYVHDCFIAQVADLCDLFLHGG [SEQ ID NO 3174]
< 100	GGRYVHDCFIAQVGDLCDLFAHGG [SEQ ID NO 3183]
< 100	GGRYVHDCFIAQVGDLCDAFLHGG [SEQ ID NO 3185]
< 100	GGRYVHDCFIAQVGDLCALFLHGG [SEQ ID NO 3186]
< 100	GGAYVHDCFIAQVGDLCDLFLHGG [SEQ ID NO 3177]
< 100	GGAYVHDCFIGQVGDLCDLFLHGG [SEQ ID NO 3202]
< 100	GGRYVHDCFIAQVGDACDLFLHGG [SEQ ID NO 3176]
< 100	GGRYAHDCFIAQVGDLCDLFLHGG [SEQ ID NO 3179]
< 100	GGRYVADCFIAQVGDLCDLFLHGG [SEQ ID NO 3180]

IC50 [µM]	Binder
< 100	GGRYVHDCFIAQAGDLCDLFLHGG [SEQ ID NO 3173]
< 100	GGRYVHDCFIAQVGDLCDLFLAGG [SEQ ID NO 3182]
< 100	B3
< 100	B4
< 100	B5
< 100	B6
< 100	B7
< 100	B8
< 100	B9
< 100	LLVDCFKVKVGELCDLFFGGG [SEQ ID NO 3125]
< 100	VDCFKVKVGELCDLFFGPAPAPAPAPAPAPAPAGVVCQDWEGVELCWQ [SEQ ID NO 4180]
< 100	B10
< 100	WYPCWIARVGELCDLEEGPVNRGGGGGSGGVVCQDWEGVELCWQGG [SEQ ID NO 4172]
< 100	B11
< 100	LVDCFKVKVGELCDLFFGGG [SEQ ID NO 3126]
< 100	B12
< 100	B13
< 100	VDCFKVKVGELCDLFFGGG [SEQ ID NO 3127]
< 100	GGELLVDCFRVRVGELCDLFFGGG [SEQ ID NO 3128]

target: T4, cynomolgus monkey Rγc subunit (cynomolgus monkey); assay: competition ELISA, peptide tracer
T4 construct: also called cyno-IL-2Rγc subunit
Protocol: as §1, §2, §3

IC50 [µM]	Binder
< 100	LVDCFKVKVGELCDLFFGPAPAPAPAPAPAPAPAGVVCQDWEGVELCWQ [SEQ ID NO 4179]
< 100	B1
< 100	B2
< 100	B3
< 100	B4
< 100	B5
< 100	B6
< 100	B7
< 100	B8
< 100	B9
< 100	VDCFKVKVGELCDLFFGPAPAPAPAPAPAPAPAGVVCQDWEGVELCWQ [SEQ ID NO 4180]
< 100	B10
< 100	WYPCWIARVGELCDLEEGPVNRGGGGGSGGVVCQDWEGVELCWQGG [SEQ ID NO 4172]
< 100	B11
< 100	B12
< 100	B13

target: T2, human IL-2Rβ (CD122 protein, Fc Tag) …; assay: competition ELISA, peptide tracer
Protocol: as §1, §2, §3

IC50 [µM]	Binder
< 100	LVDCFKVKVGELCDLFFGPAPAPAPAPAPAPAPAGVVCQDWEGVELCWQ [SEQ ID NO 4179]
< 100	B1
< 100	B2
< 100	GGRYVHDCFIAQVGDLCDLFLHGG [SEQ ID NO 3147]
< 100	GGRYVHDCFAAQVGDLCDLFLHGG [SEQ ID NO 3170]
< 100	GGRYVHDCFIAAVGDLCDLFLHGG [SEQ ID NO 3172]
< 100	GGRYVHDCFIGQVGDLCDLFLHGG [SEQ ID NO 3171]
< 100	GGRAVHDCFIAQVGDLCDLFLHGG [SEQ ID NO 3178]
< 100	GGRYVHDCFIGAVGDLCDLFLHGG [SEQ ID NO 3200]
< 100	GGRYVHDCFIGQVGDLCALFLHGG [SEQ ID NO 3204]
< 100	GGRYVHDCFIAQVADLCDLFLHGG [SEQ ID NO 3174]
< 100	GGRYVHDCFIAQVGDLCDLFAHGG [SEQ ID NO 3183]
< 100	GGRYVHDCFIAQVGDLCDAFLHGG [SEQ ID NO 3185]
< 100	GGRYVHDCFIAQVGDLCALFLHGG [SEQ ID NO 3186]
< 100	GGAYVHDCFIAQVGDLCDLFLHGG [SEQ ID NO 3177]
< 100	GGAYVHDCFIGQVGDLCDLFLHGG [SEQ ID NO 3202]
< 100	GGRYVHDCFIAQVGDACDLFLHGG [SEQ ID NO 3176]
< 100	GGRYAHDCFIAQVGDLCDLFLHGG [SEQ ID NO 3179]
< 100	GGRYVADCFIAQVGDLCDLFLHGG [SEQ ID NO 3180]

IC50 [µM]	Binder
< 100	GGRYVHDCFIAQAGDLCDLFLHGG [SEQ ID NO 3173]
< 100	GGRYVHDCFIAQVGDLCDLFLAGG [SEQ ID NO 3182]
< 100	B3
< 100	B4
< 100	B5
< 100	B6
< 100	B7
< 100	B8
< 100	B9
< 100	LLVDCFKVKVGELCDLFFGGG [SEQ ID NO 3125]
< 100	VDCFKVKVGELCDLFFGPAPAPAPAPAPAPAPAGVVCQDWEGVELCWQ [SEQ ID NO 4180]
< 100	B10
< 100	WYPCWIARVGELCDLEEGPVNRGGGGGSGGVVCQDWEGVELCWQGG [SEQ ID NO 4172]
< 100	B11
< 100	LVDCFKVKVGELCDLFFGGG [SEQ ID NO 3126]
< 100	B12
< 100	B13
< 100	VDCFKVKVGELCDLFFGGG [SEQ ID NO 3127]
< 100	GGELLVDCFRVRVGELCDLFFGGG [SEQ ID NO 3128]
